Reference: US12318456B2, “Therapeutic nanoparticles containing argonaute for microRNA delivery and compositions and methods using same” (KOC UNIVERSITESI, priority 2018, dated 2025)

Key:
miR-376b = assay: Flag immunoprecipitation of AGO2 and its domains, miRNA level by Taqman QPCR; type: binding; conditions: flag tagged proteins overexpressed in HEK293T cells, immunoprecipitated with flag beads
Text: The miRNA is anchored in AGO2 protein and makes several kinks and turns along the binding groove (Elkayam et al. Cell. 2012. 150:100-110). A binding pocket composed of residues from PAZ and PIWI domains as previously observed interacts with miRNA (Boland et al. EMBO Rep. 2010. 11:522-527; Lingel et al. Nat Struct Mol Biol. 2004. 11:576-577; Schirle et al. Science. 2014. 346:608-613; Wang et al. Nature. 2008. 456:209-213). To determine which domain of AGO2 protein have the key role in miRNA binding affinity, flag tagged AGO2 protein and its domains, PAZ and PIWI, were overexpressed in HEK293T cells in the presence or absence of miR-376b overexpression and they immunoprecipitated with flag beads. […] It can be concluded that each domain of AGO2 protein is essential for the highest binding affinity (FIG. 10).

[1] = Hydrodynamic properties of SPIONs by dynamic light scattering; type: physicochemical; conditions: medium PBS; for HDR Z-average (hydrodynamic size): dynamic light scattering
Description: Hydrodynamic properties of SPIONs were measured after each conjugation step to monitor colloidal stability (Table 2).

miRNA binding affinity (miR-376b) (miR-376b) | Substance | HDR Z-average (hydrodynamic size) [1] [nm] | PDI [1] | Zeta Potential [1] [mV]
greater affinity | full length AGO2 protein: flag tagged full length Argonaute-2 protein overexpressed in HEK293T cells |  |  | 
 | SPION/AGO2: AGO2 protein covalently attached to SPION/PAA via amide bond (EDC/NHS) | 20 | 0.43 | −23
 | SPION/AGO2/PEG-MI: SPION/AGO2 reacted with NH2-PEG-Mal (2000 Da) linker | 30 | 0.59 | −21
partial role | PAZ: flag tagged AGO2 fragment, aa1-480 |  |  | 
